The text below walks through data of patent publication US20180355009A1.

Where “and” joins values, the source holds several entries; their conditions need not be identical. Equal entries are not always repeated.

The experiment deals with human IL-22 receptor complex IL22R1 and IL10R2, overexpressed on HEK 293 cells (human) (UniProt Q8N6P7). Briefly: cell-based or functional assay.
human IL-22 receptor complex IL22R1 and IL10R2, overexpressed on HEK 293 cells (human), sequence (Q8N6P7 16-574, chain 1 of 2): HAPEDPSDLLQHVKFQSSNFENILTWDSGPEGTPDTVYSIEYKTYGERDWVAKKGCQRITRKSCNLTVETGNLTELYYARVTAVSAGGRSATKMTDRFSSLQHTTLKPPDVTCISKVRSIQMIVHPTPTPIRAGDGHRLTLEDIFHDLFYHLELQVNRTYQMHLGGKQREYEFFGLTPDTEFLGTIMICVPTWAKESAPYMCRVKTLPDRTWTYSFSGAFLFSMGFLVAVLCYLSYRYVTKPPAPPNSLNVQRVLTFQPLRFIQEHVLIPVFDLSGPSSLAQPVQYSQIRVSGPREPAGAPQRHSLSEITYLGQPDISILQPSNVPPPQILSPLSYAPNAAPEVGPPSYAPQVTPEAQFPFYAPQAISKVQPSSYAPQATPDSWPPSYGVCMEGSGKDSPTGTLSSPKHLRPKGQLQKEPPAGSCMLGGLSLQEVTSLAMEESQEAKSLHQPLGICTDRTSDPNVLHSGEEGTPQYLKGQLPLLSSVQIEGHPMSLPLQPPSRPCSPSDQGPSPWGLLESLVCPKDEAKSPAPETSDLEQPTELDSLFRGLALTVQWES
human IL-22 receptor complex IL22R1 and IL10R2, overexpressed on HEK 293 cells (human), sequence (Q08334 20-325, chain 2 of 2, further chain): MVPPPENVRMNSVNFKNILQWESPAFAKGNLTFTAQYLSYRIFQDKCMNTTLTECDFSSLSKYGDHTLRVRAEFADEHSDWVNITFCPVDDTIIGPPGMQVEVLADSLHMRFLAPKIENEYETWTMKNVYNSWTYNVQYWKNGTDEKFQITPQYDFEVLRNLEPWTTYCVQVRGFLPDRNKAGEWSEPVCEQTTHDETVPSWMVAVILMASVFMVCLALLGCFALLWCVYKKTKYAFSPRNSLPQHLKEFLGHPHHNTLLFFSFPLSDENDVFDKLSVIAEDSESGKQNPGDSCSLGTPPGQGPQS

Take “native IL-22 protein produced in CHO cells (from UniProt Q9GZX6 34-179) (ligand)”: the potency in the STAT3 luciferase reporter assay, against the IL-22 Fc fusion proteins is 2 fold and 3 fold.
